# From US20260083855A1 (Hoffmann-La Roche, published 2026)
# T1: human LAG-3 on activated CD4 T cells (human, UniProt P18627 23-525)
# T1 sequence (looked up): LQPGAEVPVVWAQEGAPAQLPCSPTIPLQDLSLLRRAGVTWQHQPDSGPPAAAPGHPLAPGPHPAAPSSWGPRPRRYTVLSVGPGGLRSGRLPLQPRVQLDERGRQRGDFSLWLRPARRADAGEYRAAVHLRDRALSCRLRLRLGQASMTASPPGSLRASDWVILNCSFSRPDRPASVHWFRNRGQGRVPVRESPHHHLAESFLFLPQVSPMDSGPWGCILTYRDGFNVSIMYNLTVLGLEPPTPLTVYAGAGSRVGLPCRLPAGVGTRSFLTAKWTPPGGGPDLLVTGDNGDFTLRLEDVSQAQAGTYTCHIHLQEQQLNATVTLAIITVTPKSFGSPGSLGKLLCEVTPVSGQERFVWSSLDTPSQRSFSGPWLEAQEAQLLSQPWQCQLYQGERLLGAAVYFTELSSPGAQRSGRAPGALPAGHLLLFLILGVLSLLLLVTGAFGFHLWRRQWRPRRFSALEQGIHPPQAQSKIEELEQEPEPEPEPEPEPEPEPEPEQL
# T2: IL-2R on human cells (activated CD4 T cells, PBMC subsets, NK92) (human, UniProt P14784 27-551; P31785 23-369)
# T2 sequence (looked up) 1: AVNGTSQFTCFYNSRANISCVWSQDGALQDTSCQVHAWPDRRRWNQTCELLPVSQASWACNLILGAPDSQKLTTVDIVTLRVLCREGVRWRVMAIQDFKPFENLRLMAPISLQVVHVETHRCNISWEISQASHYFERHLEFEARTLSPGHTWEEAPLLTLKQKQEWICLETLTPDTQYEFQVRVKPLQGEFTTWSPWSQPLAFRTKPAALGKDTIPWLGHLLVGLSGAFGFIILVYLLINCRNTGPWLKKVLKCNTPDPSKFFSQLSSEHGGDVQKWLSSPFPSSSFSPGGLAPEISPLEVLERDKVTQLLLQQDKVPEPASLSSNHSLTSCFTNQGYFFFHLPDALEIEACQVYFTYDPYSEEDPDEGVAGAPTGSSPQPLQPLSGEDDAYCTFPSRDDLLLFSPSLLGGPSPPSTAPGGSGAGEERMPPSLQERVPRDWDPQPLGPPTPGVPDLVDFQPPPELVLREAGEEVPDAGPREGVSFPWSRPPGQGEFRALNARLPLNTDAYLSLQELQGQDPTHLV
# T2 sequence (looked up) 2: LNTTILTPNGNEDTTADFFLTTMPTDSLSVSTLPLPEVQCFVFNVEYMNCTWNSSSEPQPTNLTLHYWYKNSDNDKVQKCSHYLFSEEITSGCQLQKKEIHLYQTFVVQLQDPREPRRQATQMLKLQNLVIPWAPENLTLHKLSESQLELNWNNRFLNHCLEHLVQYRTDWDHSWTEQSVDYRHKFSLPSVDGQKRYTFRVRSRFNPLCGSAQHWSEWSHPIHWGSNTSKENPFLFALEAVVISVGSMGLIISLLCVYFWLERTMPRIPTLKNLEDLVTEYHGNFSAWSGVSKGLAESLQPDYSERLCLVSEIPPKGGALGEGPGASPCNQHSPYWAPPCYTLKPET
# Columns and labels:
# Assay in all cases: cell-based or functional assay
# [1] = molecular target: T1, human LAG-3 on activated CD4 T cells
# [2] = molecular target: T2, IL-2R on human cells (activated CD4 T …)
# [3] = molecular target: T3, human PD-1 on activated CD4 T cells (human, UniProt Q15116 25-288)
# T3 sequence (Q15116 25-288 limits assumed): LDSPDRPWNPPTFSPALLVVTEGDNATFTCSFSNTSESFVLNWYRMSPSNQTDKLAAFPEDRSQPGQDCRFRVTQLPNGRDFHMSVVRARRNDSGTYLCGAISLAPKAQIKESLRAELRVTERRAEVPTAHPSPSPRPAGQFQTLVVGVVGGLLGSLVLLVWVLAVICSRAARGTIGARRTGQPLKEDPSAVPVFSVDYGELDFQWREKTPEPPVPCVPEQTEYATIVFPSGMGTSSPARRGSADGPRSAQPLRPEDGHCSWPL
# [4] = molecular target: T1, human LAG-3 on activated CD4 T cells; remark: listed apart in the source
# [5] = molecular target: T3, human PD-1 on activated CD4 T cells; remark: listed apart in the source
# [6] = molecular target: T2, IL-2R on human cells (activated CD4 T …); remark: listed apart in the source
# [7] = molecular target: T3, human PD-1 on activated CD4 T cells; remark: listed apart in the source
"Cis-delivery: fold increase in EC50, EC50 [PD1/LAG-3 bl.]/EC50 [PD1+/LAG-3+] [1]",Potency reduction vs PD1-IL2v on PD-1+ LAG-3+ T cells [2],"Cis-delivery: fold increase in EC50, EC50 [PD1/LAG-3 bl.]/EC50 [PD1+/LAG-3+] [3]","STAT5-P potency on PD-1+, LAG-3+ T cells against PD1-IL2v [4]","STAT5-P potency on PD-1+, LAG-3+ T cells against PD1-IL2v [5]","Percentage of internalization (0.6 nM, activated CD4 T cells, 3 h at 37 C) [6]","Percentage of internalization (0.6 nM, activated CD4 T cells, 3 h at 37 C) [7]",Binder
1110 fold,0.00787 fold,1110 fold,127 fold,127 fold,25.7%,–,"PD1-LAG3-IL2v (P1AF4801) (bispecific antibody, human IgG1, kappa, L234A L235A) light 1: EVQLLESGGGLVQPGGSLRLSCAASGFSFSSYTMSWVRQAPGKGLEWVATISGGGRDIYYPDSVKGRFTISRDNSKNTLYLQMNSLRAEDTAVYYCVLLTGRVYFALDSWGQGTLVTVSSASVAAPSVFIFPPSDEQLKSGTASVVCLLNNFYPREAKVQWKVDNALQSGNSQESVTEQDSKDSTYSLSSTLTLSKADYEKHKVYACEVTHQGLSSPVTKSFNRGEC light 2: not shown heavy 1: EVQLLESGGGLVQPGGSLRLSCAASGFIFDDYTMNWVRQAPGKGLEWVAVISWDGGGTYYTDSVKGRFTISRDDFKNTLYLQMNSLRAEDTAVYYCAKGLTDTTLYGSDYWGQGTLVTVSSASTKGPSVFPLAPSSKSTSGGTAALGCLVEDYFPEPVTVSWNSGALTSGVHTFPAVLQSSGLYSLSSVVTVPSSSLGTQTYICNVNHKPSNTKVDEKVEPKSCDKTHTCPPCPAPEAAGGPSVFLFPPKPKDTLMISRTPEVTCVVVDVSHEDPEVKFNWYVDGVEVHNAKTKPREEQYNSTYRVVSVLTVLHQDWLNGKEYKCKVSNKALGAPIEKTISKAKGQPREPQVCTLPPSRDELTKNQVSLSCAVKGFYPSDIAVEWESNGQPENNYKTTPPVLDSDGSFFLVSKLTVDKSRWQQGNVFSCSVMHEALHNHYTQKSLSLSPGK heavy 2: not shown"
485 fold,0.154 fold,485 fold,6.5 fold,6.5 fold,28.1%,–,"PD1-LAG3-IL2v Q126T (P1AF7951) (bispecific antibody, human IgG1, kappa, L234A L235A) light 1: EVQLLESGGGLVQPGGSLRLSCAASGFSFSSYTMSWVRQAPGKGLEWVATISGGGRDIYYPDSVKGRFTISRDNSKNTLYLQMNSLRAEDTAVYYCVLLTGRVYFALDSWGQGTLVTVSSASVAAPSVFIFPPSDEQLKSGTASVVCLLNNFYPREAKVQWKVDNALQSGNSQESVTEQDSKDSTYSLSSTLTLSKADYEKHKVYACEVTHQGLSSPVTKSFNRGEC light 2: not shown heavy 1: EVQLLESGGGLVQPGGSLRLSCAASGFIFDDYTMNWVRQAPGKGLEWVAVISWDGGGTYYTDSVKGRFTISRDDFKNTLYLQMNSLRAEDTAVYYCAKGLTDTTLYGSDYWGQGTLVTVSSASTKGPSVFPLAPSSKSTSGGTAALGCLVEDYFPEPVTVSWNSGALTSGVHTFPAVLQSSGLYSLSSVVTVPSSSLGTQTYICNVNHKPSNTKVDEKVEPKSCDKTHTCPPCPAPEAAGGPSVFLFPPKPKDTLMISRTPEVTCVVVDVSHEDPEVKFNWYVDGVEVHNAKTKPREEQYNSTYRVVSVLTVLHQDWLNGKEYKCKVSNKALGAPIEKTISKAKGQPREPQVCTLPPSRDELTKNQVSLSCAVKGFYPSDIAVEWESNGQPENNYKTTPPVLDSDGSFFLVSKLTVDKSRWQQGNVFSCSVMHEALHNHYTQKSLSLSPGK heavy 2: not shown"
–,–,–,–,–,–,13.6%,"anti-PD1 IgG PG LALA (P1AA6888) (antibody, V domains shown) VH: EVQLLESGGGLVQPGGSLRLSCAASGFSFSSYTMSWVRQAPGKGLEWVATISGGGRDIYYPDSVKGRFTISRDNSKNTLYLQMNSLRAEDTAVYYCVLLTGRVYFALDSWGQGTLVTVSS VL: DIVMTQSPDSLAVSLGERATINCKASESVDTSDNSFIHWYQQKPGQSPKLLIYRSSTLESGVPDRFSGSGSGTDFTLTISSLQAEDVAVYYCQQNYDVPWTFGQGTKVEIKR"
